According to PMC12412656:

Assays:
[1] = molecular target: DLC1 TBS (465-489C) synthetic peptide, fluorescein-labelled; test: fluorescence polarisation; R7R8 serially diluted (maximum 160 μM) into 0.5 μM fluorescein-labelled peptide; PBS with 1 mM TCEP and 0.02% Tween-20; room temperature; triplicate; one-site total binding model
[2] = molecular target: RIAM TBS1 (4-30C) synthetic peptide, fluorescein-labelled; test: as above
[3] = molecular target: talin 1 R7R8 domain protein (mouse) (mouse); test: fluorescence polarisation; competition: R7R8 (30 μM) pre-incubated with DLC1 TBS-F (1 μM) 20 min at room temperature, diluted 1:2 into unlabeled peptide at twofold increasing concentrations up to 160 μM; one-site Ki fit

Kd [1]	Kd [2]	Ki [3]	Molecule
4.92 µM	9.21 µM	–	talin 1 R7R8 domain protein (mouse) (domain or fragment)
–	–	90 µM	SEDIDQMFSTLLGEMDLLTQSLGVDTC [RIAM TBS1 (4-30C) synthetic peptide, unlabeled]
